Data on 4 molecules can be found in article PMC8782169, “The distinct RNA-interaction modes of a small ZnF domain underlay TUT4(7) diverse action in miRNA regulation”.

Common to all, as to settings: protein: recombinant; tags: N-terminal His6 removed by TEV
In data set [1] the target is T1, hTUT4 CCHC-ZnF2 (Homo sapiens, UniProt Q5TAX3 1293-1321).
T1 chain: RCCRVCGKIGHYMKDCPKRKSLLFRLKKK
The data set is described as follows: NMR titration (15N HSQC CSP); 10 uM ZnCl2; NMR: 10 mM Tris-HCl pH 7.4, 100 mM NaCl, 0.5 mM TCEP, 10 uM ZnCl2, 25 C, 50 uM protein; BLI: streptavidin sensors, 1-8 uM protein, buffer not in material.

Data set [2] has as its target T1, hTUT4 CCHC-ZnF2. The data set is described as follows: BLI; NMR: 10 mM Tris-HCl pH 7.4, 100 mM NaCl, 0.5 mM TCEP, 10 uM ZnCl2, 25 C, 50 uM protein; BLI: streptavidin sensors, 1-8 uM protein, buffer not in material.
The target of data set [3] is T2, hTUT4 CCHC-ZnF2-3 (Homo sapiens, UniProt Q5TAX3 1293-1382).
T2 sequence: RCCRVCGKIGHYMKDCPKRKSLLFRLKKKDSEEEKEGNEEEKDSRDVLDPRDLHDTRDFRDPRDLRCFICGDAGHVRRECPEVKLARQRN
The data set is described as follows: BLI; affinity very similar to ZnF2 (value in figure only); NMR: 10 mM Tris-HCl pH 7.4, 100 mM NaCl, 0.5 mM TCEP, 10 uM ZnCl2, 25 C, 50 uM protein; BLI: streptavidin sensors, 1-8 uM protein, buffer not in material. (Biolayer interferometry detects binding as a change in optical thickness at a sensor tip.)

The target in data set [4] is T2, hTUT4 CCHC-ZnF2-3. The data set is described as follows: BLI; affinity very similar to ZnF2; ~2-fold slower association and slightly longer lifetime (value in figure only); NMR: 10 mM Tris-HCl pH 7.4, 100 mM NaCl, 0.5 mM TCEP, 10 uM ZnCl2, 25 C, 50 uM protein; BLI: streptavidin sensors, 1-8 uM protein, buffer not in material.
Data set [5] has as its target T1, hTUT4 CCHC-ZnF2. The data set is described as follows: NMR titration (15N HSQC CSP); 10 uM ZnCl2; protein:RNA 1:10; NMR: 10 mM Tris-HCl pH 7.4, 100 mM NaCl, 0.5 mM TCEP, 10 uM ZnCl2, 25 C, 50 uM protein; BLI: streptavidin sensors, 1-8 uM protein, buffer not in material.

With CGGA (ssRNA) [CGGA RNA], the Kd – broadly, the concentration at which binding is half-saturated – in data set [1] was determined as 3.7 ± 0.4 µM.
On to UUUGGA (ssRNA) [UUUGGA RNA (short RNA with SIA sequence)], for which the Kd in data set [2] is ~4 µM. For the same molecule, the binding result in data set [3] is “binds”.
With UGAGGUAGUAGUUUGUGCUGUU (ssRNA) [Let-7i miRNA], in data set [2], the Kd was ~4 µM. The binding result in data set [4] is listed as “binds”.
Regarding UUUU (ssRNA) [UUUU RNA], in data set [5], the binding result was “no binding”.
